Measured values published in patent publication US10800847.

Tests used:
[1] = target: HLA-A*6602 (A66) single antigen on beads (human); assay: Luminex iBeads (#6), IVIg 1:8
[2] = target: HLA-A*3201 (A32) single antigen on beads (human); assay: Luminex iBeads (#6), IVIg 1:8
[3] = target: HLA-A*3001 (A30) single antigen on beads (human); assay: Luminex iBeads (#6), IVIg 1:8
[4] = target: HLA-A*3601 (A36) single antigen on beads (human); assay: Luminex iBeads (#6), IVIg 1:8
[5] = target: HLA-A*4301 (A43) single antigen on beads (human); assay: Luminex iBeads (#6), IVIg 1:8
[6] = target: HLA-A*3402 (A34) single antigen on beads (human); assay: Luminex iBeads (#6), IVIg 1:8
[7] = target: HLA-A*3401 (A34) single antigen on beads (human); assay: Luminex iBeads (#6), IVIg 1:8
[8] = target: HLA-A*3303 (A33) single antigen on beads (human); assay: Luminex iBeads (#6), IVIg 1:8
[9] = target: HLA-A*3002 (A30) single antigen on beads (human); assay: Luminex iBeads (#6), IVIg 1:8
[10] = target: HLA-A*3101 (A31) single antigen on beads (human); assay: Luminex iBeads (#6), IVIg 1:8
[11] = target: HLA-A*2902 (A29) single antigen on beads (human); assay: Luminex iBeads (#6), IVIg 1:8
[12] = target: HLA-A*6601 (A66) single antigen on beads (human); assay: Luminex iBeads (#6), IVIg 1:8
[13] = target: HLA-A*3001 (A30) single antigen on beads (human); assay: Luminex, iBead vs regular bead, IVIg 1:8
[14] = target: HLA-A*3601 (A36) single antigen on beads (human); assay: Luminex, iBead vs regular bead, IVIg 1:8
[15] = target: HLA-A*3301 (A33) single antigen on beads (human); assay: Luminex, iBead vs regular bead, IVIg 1:8
[16] = target: HLA-A*6801 (A68) single antigen on beads (human); assay: Luminex, iBead vs regular bead, IVIg 1:8
[17] = target: HLA-A*3402 (A34) single antigen on beads (human); assay: Luminex, iBead vs regular bead, IVIg 1:8
[18] = target: HLA-A*3401 (A34) single antigen on beads (human); assay: Luminex, iBead vs regular bead, IVIg 1:8
[19] = target: HLA-A*3303 (A33) single antigen on beads (human); assay: Luminex, iBead vs regular bead, IVIg 1:8
[20] = target: HLA-A*3101 (A31) single antigen on beads (human); assay: Luminex, iBead vs regular bead, IVIg 1:8
[21] = target: HLA-A*2902 (A29) single antigen on beads (human); assay: Luminex, iBead vs regular bead, IVIg 1:8
[22] = target: HLA-A*6601 (A66) single antigen on beads (human); assay: Luminex, iBead vs regular bead, IVIg 1:8
[23] = target: HLA-B*1401 (B64) (human); assay: Luminex regular beads (#7), IVIg diluted 1:8
[24] = target: HLA-B*1801 (B18) (human); assay: Luminex regular beads (#7), IVIg diluted 1:8
[25] = target: HLA-B*1513 (B77) (human); assay: Luminex regular beads (#7), IVIg diluted 1:8
[26] = target: HLA-B*0702 (B7) (human); assay: Luminex regular beads (#7), IVIg diluted 1:8
[27] = target: HLA-B*1503 (B72) (human); assay: Luminex regular beads (#7), IVIg diluted 1:8
[28] = target: HLA-B*1501 (B62) (human); assay: Luminex iBeads (#6), IVIg diluted 1:8
[29] = target: HLA-B*1801 (B18) (human); assay: Luminex iBeads (#6), IVIg diluted 1:8
[30] = target: HLA-B*1513 (B77) (human); assay: Luminex iBeads (#6), IVIg diluted 1:8
[31] = target: HLA-B*0801 (B8) (human); assay: Luminex iBeads (#6), IVIg diluted 1:8
[32] = target: HLA-B*1516 (B63) (human); assay: Luminex iBeads (#6), IVIg diluted 1:8
[33] = target: HLA-B*0702 (B7) (human); assay: Luminex iBeads (#6), IVIg diluted 1:8
[34] = target: HLA-B*1301 (B13) (human); assay: Luminex iBeads (#6), IVIg diluted 1:8
[35] = target: HLA-B*1302 (B13) (human); assay: Luminex iBeads (#6), IVIg diluted 1:8
[36] = target: Serum albumin on negative control beads (HSA/BSA) (human or bovine); assay: Luminex iBeads (#6), IVIg diluted 1:8
[37] = target: HLA-B*1510 (B71) (human); assay: Luminex iBeads (#6), IVIg diluted 1:8
[38] = target: HLA-B*1503 (B72) (human); assay: Luminex iBeads (#6), IVIg diluted 1:8
[39] = target: HLA-B*1511 (B75) (human); assay: Luminex iBeads (#6), IVIg diluted 1:8
[40] = target: HLA-B*1502 (B75) (human); assay: Luminex iBeads (#6), IVIg diluted 1:8
[41] = target: HLA-B*1512 (B76) (human); assay: Luminex iBeads (#6), IVIg diluted 1:8
[42] = target: HLA-B*1402 (B65) (human); assay: Luminex iBeads (#6), IVIg diluted 1:8
[43] = target: HLA-A*6901 (A69) single antigen on Luminex beads (human); assay: Luminex single antigen bead assay, iBeads vs regular beads, IVIg 1:8
[44] = target: HLA-A*8001 (A80) single antigen on Luminex beads (human); assay: as above
[45] = target: HLA-A*3301 (A33) single antigen on beads (human); assay: Luminex iBeads (#6), IVIg 1:8
[46] = target: HLA-A*6801 (A68) single antigen on beads (human); assay: Luminex iBeads (#6), IVIg 1:8

IVIg Gamunex-C Lot NKLK1 (antibody)
MFI [1]: 1860 MFI
MFI [2]: 915 MFI
MFI [3]: 1340 MFI
MFI [4]: 1550 MFI
MFI [5]: 2720 MFI
MFI [6]: 0 MFI
MFI [7]: 3420 MFI
MFI [8]: 517 MFI
MFI [9]: 1410 MFI
MFI [10]: 0 MFI
MFI [11]: 2890 MFI
MFI [12]: 2330 MFI
Difference % (iBead MFI vs regular bead MFI) [13]: 9%
Difference % (iBead MFI vs regular bead MFI) [14]: 120%
Difference % (iBead MFI vs regular bead MFI) [15]: 42%
Difference % (iBead MFI vs regular bead MFI) [16]: 0%
Difference % (iBead MFI vs regular bead MFI) [17]: 0%
Difference % (iBead MFI vs regular bead MFI) [18]: 59%
Difference % (iBead MFI vs regular bead MFI) [19]: 189%
Difference % (iBead MFI vs regular bead MFI) [20]: 0%
Difference % (iBead MFI vs regular bead MFI) [21]: 253%
Difference % (iBead MFI vs regular bead MFI) [22]: 166%
MFI [23]: 2280 MFI
MFI [24]: 567 MFI
MFI [25]: 3210 MFI
MFI [26]: 837 MFI
MFI [27]: 2300 MFI
MFI [28]: 53 MFI
MFI [29]: 0 MFI
MFI [30]: 841 MFI
MFI [31]: 0 MFI
MFI [32]: 1210 MFI
MFI [33]: 0 MFI
MFI [34]: 1030 MFI
MFI [35]: 0 MFI
MFI [36]: 7800 MFI
MFI [37]: 347 MFI
MFI [38]: 0 MFI
MFI [39]: 1860 MFI
MFI [40]: 91 MFI
MFI [41]: 1420 MFI
MFI [42]: 0 MFI
Difference % (iBead MFI against regular bead MFI) [43]: 4%
Difference % (iBead MFI against regular bead MFI) [44]: -29%

IVIg Octagam (Octapharma, Lachen, Switzerland) (antibody)
MFI [1]: 684 MFI
MFI [2]: 518 MFI
MFI [3]: 510 MFI
MFI [4]: 572 MFI
MFI [45]: 1360 MFI
MFI [46]: 0 MFI
MFI [5]: 1690 MFI
MFI [6]: 0 MFI
MFI [7]: 2060 MFI
MFI [8]: 152 MFI
MFI [9]: 369 MFI
MFI [10]: 0 MFI
MFI [11]: 2270 MFI
MFI [12]: 1020 MFI
Difference % (iBead MFI vs regular bead MFI) [13]: -45%
Difference % (iBead MFI vs regular bead MFI) [14]: -26%
Difference % (iBead MFI vs regular bead MFI) [15]: -9%
Difference % (iBead MFI vs regular bead MFI) [16]: 0%
Difference % (iBead MFI vs regular bead MFI) [17]: 0%
Difference % (iBead MFI vs regular bead MFI) [20]: -100%
Difference % (iBead MFI vs regular bead MFI) [21]: 44%
Difference % (iBead MFI vs regular bead MFI) [22]: -40%
MFI [23]: 2400 MFI
MFI [24]: 246 MFI
MFI [25]: 2260 MFI
MFI [26]: 714 MFI
MFI [27]: 1060 MFI
MFI [28]: 0 MFI
MFI [29]: 0 MFI
MFI [31]: 114 MFI
MFI [32]: 880 MFI
MFI [33]: 0 MFI
MFI [34]: 52 MFI
MFI [35]: 0 MFI
MFI [37]: 0 MFI
MFI [38]: 0 MFI
MFI [39]: 1090 MFI
MFI [40]: 0 MFI
MFI [41]: 1380 MFI
MFI [42]: 0 MFI
Difference % (iBead MFI against regular bead MFI) [43]: -53%
Difference % (iBead MFI against regular bead MFI) [44]: -63%

IVIg Gamunex-C Lot NKLG1 (antibody)
MFI [2]: 3760 MFI
MFI [3]: 4470 MFI
MFI [4]: 3950 MFI
MFI [45]: 4460 MFI
MFI [46]: 3150 MFI
MFI [8]: 3330 MFI
MFI [10]: 3410 MFI
MFI [11]: 6010 MFI
Difference % (iBead MFI vs regular bead MFI) [13]: 112%
Difference % (iBead MFI vs regular bead MFI) [15]: 163%
Difference % (iBead MFI vs regular bead MFI) [18]: 47%
Difference % (iBead MFI vs regular bead MFI) [19]: 599%
Difference % (iBead MFI vs regular bead MFI) [20]: 1960%
Difference % (iBead MFI vs regular bead MFI) [21]: 243%
Difference % (iBead MFI vs regular bead MFI) [22]: 722%
MFI [25]: 4270 MFI
MFI [26]: 1540 MFI
MFI [27]: 2380 MFI
MFI [28]: 749 MFI
MFI [29]: 1140 MFI
MFI [30]: 2350 MFI
MFI [31]: 1510 MFI
MFI [32]: 2400 MFI
MFI [34]: 3560 MFI
MFI [35]: 1710 MFI
MFI [36]: 7150 MFI
MFI [37]: 1450 MFI
MFI [38]: 507 MFI
MFI [39]: 3380 MFI
MFI [41]: 2810 MFI
MFI [42]: 929 MFI
Difference % (iBead MFI against regular bead MFI) [43]: 122%
Difference % (iBead MFI against regular bead MFI) [44]: 24%

IVIg GamaSTAN S/D (Talecris Biotherapeutics, USA) (antibody)
MFI [1]: 4320 MFI
MFI [2]: 1820 MFI
MFI [3]: 624 MFI
MFI [4]: 1380 MFI
MFI [45]: 1880 MFI
MFI [46]: 634 MFI
MFI [5]: 4180 MFI
MFI [6]: 1210 MFI
MFI [7]: 4320 MFI
MFI [8]: 725 MFI
MFI [9]: 929 MFI
MFI [10]: 351 MFI
MFI [11]: 4430 MFI
MFI [12]: 2610 MFI
Difference % (iBead MFI vs regular bead MFI) [13]: -32%
Difference % (iBead MFI vs regular bead MFI) [14]: 145%
Difference % (iBead MFI vs regular bead MFI) [15]: 68%
Difference % (iBead MFI vs regular bead MFI) [16]: 230%
Difference % (iBead MFI vs regular bead MFI) [17]: 76%
Difference % (iBead MFI vs regular bead MFI) [18]: 42%
Difference % (iBead MFI vs regular bead MFI) [19]: 125%
Difference % (iBead MFI vs regular bead MFI) [20]: 189%
Difference % (iBead MFI vs regular bead MFI) [21]: 348%
Difference % (iBead MFI vs regular bead MFI) [22]: 86%
MFI [23]: 1750 MFI
MFI [24]: 0 MFI
MFI [25]: 1240 MFI
MFI [26]: 2220 MFI
MFI [27]: 689 MFI
MFI [28]: 394 MFI
MFI [29]: 0 MFI
MFI [30]: 904 MFI
MFI [31]: 324 MFI
MFI [32]: 3280 MFI
MFI [33]: 2010 MFI
MFI [34]: 1840 MFI
MFI [35]: 1200 MFI
MFI [36]: 5030 MFI
MFI [37]: 492 MFI
MFI [38]: 0 MFI
MFI [39]: 2380 MFI
MFI [40]: 709 MFI
MFI [41]: 5970 MFI
MFI [42]: 0 MFI
